Experimental findings from US20230312724A1 (KADMON, published 2023) are described below.

The target in experiment [1] is T1, mouse B7-H4-Fc (mouse; human).
T1 construct: also called mB7-H4-Fc; mB7-H4-hFc
In words: ELISA, coated mB7-H4-Fc. How it is done:
ELISA experiments were performed to determine binding to hB7-H4-Fc (FIG. 5A), hB7-H4-his (FIG. 5B), mB7-H4-Fc domain (FIG. 5C), hB7-H4 IgV domain (FIG. 5D), and hB7-H4 IgC domain (FIG. 5E). Flow cytrometry experiments were performed to determine binding to CHO cells expressing hB7-H4 (FIG. 5F) or mB7-H4 (FIG. 5G). […] A cross-reactive IgV binding antibody and an IgC binding antibody were used as controls.
(§1) About 1-2 μg/ml of human or mouse B7-H4-Fc (or his-tagged) was immobilized on ELISA plates (Immuno 2HB, Thermo scientific, cat #3455) at 4° C. overnight. After blocking the plates with 3% PBS+milk, serial diluted antibodies were added to the blocked plates and incubated at RT for 1-1.5 h. After washing the plates with PBS-T (0.05%), horse radish peroxidase (HRP)-conjugated antibody targeting the hFab was added to the plate. Signals were developed by adding 3,3′,5,5′-Tetramethylbenzidine (TMB (followed 1N of H₂SO₄ to stop the reaction. The OD at 450 nm was read by ELISA plate reader (Infinite M1000 from TECAN). GraphPad from Prism was used to plot OD450 vs. antibody concentration curve and to calculate the EC50 values.

Experiment [2] has as its target T1, mouse B7-H4-Fc. In words: ELISA on coated mB7-H4-Fc. How it is done: as §1
In experiment [3] the target is T2, hB7-H4 (soluble human B7-H4, construct not named) (human, UniProt Q7Z7D3 25-259, limits assumed).
T2 construct: also called soluble hB7-H4
T2 sequence: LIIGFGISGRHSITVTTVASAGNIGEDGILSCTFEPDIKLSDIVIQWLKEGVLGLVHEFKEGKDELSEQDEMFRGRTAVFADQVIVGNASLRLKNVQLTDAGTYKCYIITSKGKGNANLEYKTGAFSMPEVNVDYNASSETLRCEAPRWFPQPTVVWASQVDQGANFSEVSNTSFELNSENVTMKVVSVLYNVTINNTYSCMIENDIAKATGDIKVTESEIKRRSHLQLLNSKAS
In words: SPR (Biacore). Put shortly:
(§2)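 Kinetic constants came from a 1:1 Langmuir fit of binding at 25 °C in HBS-EP, pH 7.4. Analyte (100 nM to 0.1 nM) flowed for 180 s, then dissociated for 1000 or 1200 s, over amine-coupled human B7-H4-Fc, human B7-H4-his or mouse B7-H4-Fc surfaces at 50-100 RU.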

In experiment [4] the target is T3, mB7-H4 (soluble mouse B7-H4, construct not named) (mouse, UniProt Q7TSP5 25-257, limits assumed).
T3 sequence: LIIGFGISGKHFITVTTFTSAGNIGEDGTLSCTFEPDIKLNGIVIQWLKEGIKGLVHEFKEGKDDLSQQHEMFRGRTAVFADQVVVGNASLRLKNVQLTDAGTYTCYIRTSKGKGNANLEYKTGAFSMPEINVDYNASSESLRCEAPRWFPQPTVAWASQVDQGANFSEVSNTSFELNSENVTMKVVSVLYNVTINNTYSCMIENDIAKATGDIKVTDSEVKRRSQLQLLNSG
In words: SPR (Biacore). The procedure, abridged:
as §2

T1 sequence (chain, as listed by the source): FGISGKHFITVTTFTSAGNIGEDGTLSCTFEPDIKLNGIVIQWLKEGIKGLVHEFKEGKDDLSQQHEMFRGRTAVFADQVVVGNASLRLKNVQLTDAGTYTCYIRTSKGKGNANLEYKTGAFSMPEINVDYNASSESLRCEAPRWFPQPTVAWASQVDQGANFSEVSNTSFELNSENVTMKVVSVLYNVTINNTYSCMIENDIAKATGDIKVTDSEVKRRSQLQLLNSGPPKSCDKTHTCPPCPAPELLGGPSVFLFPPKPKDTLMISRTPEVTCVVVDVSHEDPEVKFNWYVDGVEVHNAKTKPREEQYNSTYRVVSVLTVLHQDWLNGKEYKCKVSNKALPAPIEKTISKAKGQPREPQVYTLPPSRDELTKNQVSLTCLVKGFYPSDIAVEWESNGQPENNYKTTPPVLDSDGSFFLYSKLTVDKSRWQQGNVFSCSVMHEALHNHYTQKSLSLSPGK

B1: Control antibody 1 (antibody 20502 described in US20190085080A1) (antibody, V domains shown)
VH: QLQLQESGPGLVKPSETLSLTCTVSGGSIKSGSYYWGWIRQPPGKGLEWIGNIYYSGSTYYNPSLRSRVTISVDTSKNQFSLKLSSVTAADTAVYYCAREGSYPNQFDPWGQGTLVTVSS
VL: EIVMTQSPATLSVSPGERATLSCRASQSVSSNLAWYQQKPGQAPRLLIYGASTRATGIPARFSGSGSGTEFTLTISSLQSEDFAVYYCQQYHSFPFTFGGGTKVEIK
notes: also called (+) control Ab1; (+) Ab1
Turning to B1, the “EC50 (read off the curve)” value with mouse B7-H4-Fc [1] and in the experiment with mouse B7-H4-Fc [2] was roughly 0.1 nM in each case.

B2: 39A11/57G8 (antibody, human IgG1, V domains shown)
VH: EVQLLESGGGLVQPGGSLRLSCAASGFTFSSYGMHWVRQAPGKGLEWVASISSSSGYIYYADSVKGRFTISRDNSKNTLYLQMNSLRAEDTAVYYCARASSGMDVWGQGTTVTVSS
VL: DIQMTQSPSSLSASVGDRVTITCRASQSIRSYLNWYQQKPGKAPKLLIYYASSLQSGVPSRFSGSGSGTDFTLTISSLQPEDFATYYCQQYYSTPLTFGQGTKVEIK
notes: 39A11 VH with 57G8 VL
B2: the Kd turned out to be 0.303 nM in experiment [3] and 0.0998 nM in experiment [4].
